Data from patent US20230049752A1 (University of California, published 2023).
Numbering of substitutions follows the chain as printed.

T1: mouse Claudin-6 (CLDN6) (mouse, UniProt Q9Z262 1-219)
T1 construct: whole, on cells; GFP fusion on engineered HEK293T cells; also called Mouse CLDN6; murine CLDN6
T1 sequence (looked up): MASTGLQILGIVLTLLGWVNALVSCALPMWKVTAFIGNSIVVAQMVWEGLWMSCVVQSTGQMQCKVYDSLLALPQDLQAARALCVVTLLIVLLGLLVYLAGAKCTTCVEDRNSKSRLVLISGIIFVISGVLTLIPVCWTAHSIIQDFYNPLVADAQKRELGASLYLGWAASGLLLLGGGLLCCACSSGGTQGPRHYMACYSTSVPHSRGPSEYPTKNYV

B1: AB11-2 (antibody, V domains shown)
VH: EVQLVESGGGLVQPGGSLRLSCAASGFTFSSFGMHWVRQAPGKGLEWVAYISSDSRTIYYADSVKGRFTISRDNAKNSLYLQMNSLRAEDTAVYYCARDYGRTYEAYWGQGTLVTVSS
VL: DIVMTQSPDSLAVSLGERATINCRASKSVSTSGYSYIHWYQQKPGQPPKLLIYLASNLESGVPDRFSGSGSGTDFTLTISSLQAEDVAVYYCQHSRELPLTFGQGTKLEIK
notes: humanized
B2: AB11-3 (antibody, V domains shown)
VH: B1 VH
VL: B1 VL with M4L, L82V, I110L
notes: humanized
B3: AB1-Chim (antibody, V domains shown)
VH: QVQLQQSAAELARPGASVKMSCKASGYTFTTYTMHWVKQRPGQGLEWIGFINPSSGYTDYNQKFKDRTTLTADKSSSTVYMQLSSLTSEDSAVYYCANGDYYVAYWGQGTLVTVSA
VL: QIVLTQSPAIMSASLGERVTMTCTASSSVSSTYFHWYQQKPGSSPKLWIYSTSNLASGVPRRFSGSASGTSYSLTISSMEAEDAATYYCHQYHRSPLTFGAGTKLELK
B4: AB3-chim (antibody, V domains shown)
VH: EVKLEESGGGLVQPGGSMKLSCVASGFTFSNYWMNWVRQSPEKGLEWVAQIRLKSDNYATHYAESVKGRFTISRDDSKRSVYLQMNNLRAEDTGTYYCNDGPPSGCWGQGTTLIVSS
VL: DIQMTQSPASLSASVGETVTITCRISENIYSYLAWYQQKQGKSPQLLVYNAKILVEGVPSRFSGSGSGTQFSLKINSLQPEDFGNYYCQHHYTVPWTFGGGTKLEIK
B5: AB4-chim (antibody, V domains shown)
VH: QVQLQQSGAELARPGASVKMSCKASGYTFTSYTMHWIKQRPGQGQEWIGYINPSSTYTHYIKKFKDKATLTADKSSSTAYMQLRSLTSEDSAVYYCSRGELGGFAYWGQGTLVTVSA
VL: DVVMTQTPLSLPVSLGDQASISCRSSQSLVHSDGNTYLNWYLQKPGQSPKLLIYKVSNRFSGVPDRFSGSGSGTDFTLKIRRVEAEDLGVYFCSQSTHVPYTFGGGTKLEIK
B6: AB1-5 (antibody, V domains shown)
VH: QVQLVQSGAEVKKPGASVKVSCKASGYTFTTYTMHWVRQAPGQGLEWMGFINPSSGYTDYAQKFQGRVTMTADTSTSTVYMELSSLRSEDTAVYYCANGDYYVAYWGQGTLVTVSS
VL: DIQLTQSPSSLSASVGDRVTMTCTASSSVSSTYFHWYQQKPGKAPKLWIYSTSNLASGVPSRFSGSGSGTDYTLTISSMQPEDAATYYCHQYHRSPLTFGQGTKLEIK
notes: humanized
B7: AB1-8 (antibody, V domains shown)
VH: B6 VH with V20M, M48I, M70L
VL: B6 VL
notes: humanized
B8: AB4-4 (antibody, V domains shown)
VH: QVQLVQSGAEVKKPGASVKMSCKASGYTFTSYTMHWIRQAPGQGLEWIGYINPSSTYTHYAQKFQGRATLTADTSTSTAYMELSSLRSEDTAVYYCSRGELGGFAYWGQGTLVTVSS
VL: DVVMTQSPLSLPVTLGQPASISCRSSQSLVHSDGNTYLNWYQQRPGQSPRLLIYKVSNRFSGVPDRFSGSGSGTDFTLKISRVEAEDVGVYYCSQSTHVPYTFGQGTKLEIK
notes: humanized

Assays:
[1] = target: human Claudin-6 (CLDN6) (human) (UniProt P56747); assay: FACS, 1.5 ug Ab, 293T clone expressing human CLDN6 (2nd Ab only 768.07)
[2] = target: human Claudin-6 (CLDN6) (human) (UniProt P56747); assay: FACS, 0.3 ug Ab, ARK2 cells (2nd Ab only 1351.21)
[3] = target: human Claudin-6 (CLDN6) (human) (UniProt P56747); assay: FACS, 0.3 ug Ab, 293T clone expressing human CLDN6 (2nd Ab only 768.07)
[4] = target: human Claudin-6 (CLDN6) (human) (UniProt P56747); assay: FACS, 1.5 ug Ab, OVCA429 cells (2nd Ab only 885.77)
[5] = target: human Claudin-6 (CLDN6) (human) (UniProt P56747); assay: FACS, 1.5 ug Ab, ARK2 cells (2nd Ab only 1351.21)
mouse Claudin-6 (CLDN6) = target: T1, mouse Claudin-6 (CLDN6); assay: FACS, 293T clone expressing mouse CLDN6, dose not stated (2nd Ab only 1061.72)
Procedure: Two doses (1.5 μg or 0.3 μg) of the humanized antibodies were tested for binding to either human CLDN6 or murine CLDN6 which proteins were expressed by engineered 293T clones.

Binder	FACS fluorescence [1]	FACS fluorescence [2]	FACS fluorescence [3]	FACS fluorescence [4]	FACS fluorescence [5]	FACS fluorescence (mouse Claudin-6 (CLDN6))
B1	2560	1400	1290	2690	1940	7160
B2	2360	1320	1010	2200	1540	5520
B3	364000	58800	312000	177000	51900	514000
B4	459000	17100	267000	138000	29100	67900
B5	327000	19100	176000	64800	38400	3640
B6	213000	7490	138000	54300	22400	128000
B7	210000	5810	98800	66000	17600	122000
B8	49000	1050	14100	1200	1400	741
